Columns and labels:
[1] = molecular target: T1, ataxin-3 fragment containing all three UIM sequences (residues 194-361, UIM_123) (human, UniProt P54252 194-361); test: NMR titration
[2] = molecular target: T1, ataxin-3 fragment containing all three …; test: NMR titration; remark: listed apart in the source

T1 sequence (P54252 194-361): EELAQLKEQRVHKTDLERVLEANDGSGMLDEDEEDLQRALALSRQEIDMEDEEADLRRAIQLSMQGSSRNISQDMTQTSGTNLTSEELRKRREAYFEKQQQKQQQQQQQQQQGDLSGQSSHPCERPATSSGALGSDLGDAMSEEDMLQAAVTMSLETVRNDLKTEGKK

B1: human parkin ubiquitin-like domain (residues 1-77) (domain or fragment, UniProt O60260 1-77, looked up)
chain: MIVFVRFNSSHGFPVEVDSDTSIFQLKEVVAKRQGVPADQLRVIFAGKELRNDWTVQNCDLDQQSIVHIVQRPWRKG
In the case of B1, the “KD of each individual UIM (UIM1, UIM2, UIM3) in UIM_123” value [1] is reported as > 1000 µM and the Kd [2] is reported as 236 ± 14 µM.
